The target of assay [1] is T1, human CD19 (human, UniProt P15391 20-556).
T1 sequence (looked up): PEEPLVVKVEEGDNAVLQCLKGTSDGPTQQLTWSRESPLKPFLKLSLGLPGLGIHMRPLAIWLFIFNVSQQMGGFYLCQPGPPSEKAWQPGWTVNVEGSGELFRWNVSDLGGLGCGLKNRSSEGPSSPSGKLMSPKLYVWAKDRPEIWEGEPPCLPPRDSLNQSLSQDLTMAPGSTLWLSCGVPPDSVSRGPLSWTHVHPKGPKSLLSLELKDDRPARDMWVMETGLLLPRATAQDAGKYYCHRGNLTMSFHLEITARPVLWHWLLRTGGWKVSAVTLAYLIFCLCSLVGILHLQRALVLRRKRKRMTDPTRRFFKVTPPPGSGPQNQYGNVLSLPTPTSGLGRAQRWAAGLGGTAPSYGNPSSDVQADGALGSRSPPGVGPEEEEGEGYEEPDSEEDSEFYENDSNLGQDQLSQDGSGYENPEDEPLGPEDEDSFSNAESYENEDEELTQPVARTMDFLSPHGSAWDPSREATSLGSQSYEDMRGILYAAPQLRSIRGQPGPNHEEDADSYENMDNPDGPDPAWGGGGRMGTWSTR
Put plainly: cell-based or functional assay.

For assay [2], the target named is T2, human CD3 (human, UniProt P07766 23-207).
T2 construct: whole, on cells; On cells CD3 stands as the full CD3/TCR complex; also called CD3 on Jurkat cells
Put plainly: flow cytometry affinity on Jurkat cells, bound/free versus bound plot; Jurkat cells, CD3. As for the experimental part:
Binding affinity to CD3 and CD19 was determined by flow cytometry using Jurkat and Ramos cells, respectively. The cells were transferred in to 96-well U-bottom plates (BD) at a density of 5×10⁴ cells/well. Antibodies to be tested were 1:2-fold serially diluted in 1% 1×PBS/1% BSA and incubated with cells at 4° C. for 1 hr. Then, the plates were centrifuged at 1500 rpm for 4 mins and the supernatant discarded. The secondary antibody, Alexa647 conjugated goat anti-human IgG Fc (Jackson, Cat #109-605-098) or FITC conjugated goat anti-His (Bethyl, Cat # A190-113F) was added to re-suspended cells and incubated at 4° C. in the dark for 30 min. The cells were washed once and re-suspended in 100 μL 1×PBS/1% BSA. Fluorescence intensity was measured by flow cytometry (BD Canto II) and analyzed by FlowJo. Fluorescence intensity was converted to bound molecules/cell based on the quantitative beads (Quantum™ MESF Kits, Bangs Laboratories). KD was calculated by Graphpad Prism5.
The binding affinity of W3438-T3U4.E17-1.uIgG4.SP to human CD19 and CD3 was tested on Ramos and Jurkat cells by flow cytometry. The bound IgG/free IgG versus bound IgG was plotted in FIGS. 14A-14B.

These results are taken from patent US20200283523A1 (WUXI BIOLOGICS IRELAND, published 2020).

As a reminder, the Kd is the free concentration of one partner at which half of the binding sites on the other are occupied at equilibrium, for simple one-to-one binding.

T2 sequence (P07766 23-207): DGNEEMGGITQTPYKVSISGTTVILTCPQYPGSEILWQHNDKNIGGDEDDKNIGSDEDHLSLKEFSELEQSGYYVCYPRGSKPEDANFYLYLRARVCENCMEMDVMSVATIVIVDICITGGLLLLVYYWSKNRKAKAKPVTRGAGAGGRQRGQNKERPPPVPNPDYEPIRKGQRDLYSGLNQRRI

B1: W3438-T3U4.E17-1.uIgG4.SP (bispecific antibody)
light 1: DIVMTQSPDSLAVSLGERATINCKSSQSLLNSRTRKNYLAWYQQKPGQPPKLLIYWASTRQSGVPDRFSGSGSGTDFTLTISSLQAEDVAVYYCTQSHTLRTFGGGTKVEIKPDIQNPDPAVYQLRDSKSSDKSVCLFTDFDSQTQVSQSKDSDVYITDKCVLDMRSMDFKSNSAVAWSQKSDFACANAFQNSIIPEDTFFPSPESS
heavy 1: QVQLVQSGAEVKKPGSSVKVSCKASGFAFTDYYIHWVRQAPGQGLEWMGWISPGNVNTKYNENFKGRVTITADKSTSTAYMELSSLRSEDTAVYYCARDGYSLYYFDYWGQGTLVTVLEDLKNVFPPEVAVFEPSEAEISHTQKATLVCLATGFYPDHVELSWWVNGKEVHSGVCTDPQPLKEQPALQDSRYALSSRLRVSATFWQNPRNHFRCQVQFYGLSENDEWTQDRAKPVTQIVSAEAWGRYGPPCPPCPAPEFLGGPSVFLFPPKPKDTLMISRTPEVTCVVVDVSQEDPEVQFNWYVDGVEVHNAKTKPREEQFNSTYRVVSVLTVLHQDWLNGKEYKCKVSNKGLPSSIEKTISKAKGQPREPQVYTLPPCQEEMTKNQVSLWCLVKGFYPSDIAVEWESNGQPENNYKTTPPVLDSDGSFFLYSRLTVDKSRWQEGNVFSCSVMHEALHNHYTQKSLSLSLGK
light 2: DIQLTQSPSFLSASVGDRVTITCSASSTVNYMHWYQQKPGKAPKLLIYSTSNLASGVPSRFSGSGSGTEFTLTISSLQPEDFATYYCHQWSSYPYTFGQGTKLEIKRTVAAPSVFIFPPSDEQLKSGTASVVCLLNNFYPREAKVQWKVDNALQSGNSQESVTEQDSKDSTYSLSSTLTLSKADYEKHKVYACEVTHQGLSSPVTKSFNRGEC
heavy 2: QMQLVQSGPEVKKPGTSVKVSCKASGYAFTSYNMYWVRQARGQRLEWIGYIDPYNGDTTYNQKFKGRVTITRDMSTSTAYMELSSLRSEDTAVYYCLTTAYAMDYWGQGTLVTVSSASTKGPSVFPLAPCSRSTSESTAALGCLVKDYFPEPVTVSWNSGALTSGVHTFPAVLQSSGLYSLSSVVTVPSSSLGTKTYTCNVDHKPSNTKVDKRVESKYGPPCPPCPAPEFLGGPSVFLFPPKPKDTLMISRTPEVTCVVVDVSQEDPEVQFNWYVDGVEVHNAKTKPREEQFNSTYRVVSVLTVLHQDWLNGKEYKCKVSNKGLPSSIEKTISKAKGQPREPQVCTLPPSQEEMTKNQVSLSCAVKGFYPSDIAVEWESNGQPENNYKTTPPVLDSDGSFFLVSRLTVDKSRWQEGNVFSCSVMHEALHNHYTQKSLSLSLGK
notes: Bispecific, bivalent: one anti-CD3 arm with TCR constant domains and one native anti-CD19 Fab arm, IgG4 S228P Fc with knobs-into-holes; also called WBP3438; CD3×CD19 bispecific antibody; copies: 1 + 1 + 1 + 1
For the molecule B1, the “cytotoxic activity on Raji cells with CD8+ T cells, EC50” value in assay [1] came out at 15 nM. In assay [2], this molecule showed a Kd of 9 nM.
